According to article PMC10404610 (Biochemistry and Biophysics Reports, 2023):
No end group written: not given here.

How the values were obtained:
CCL21 [1] = molecular target: CCL21 (UniProt O00585); experiment: NMR titration
CCL21 [2] = molecular target: T1, CCL21 (Homo sapiens, UniProt O00585); experiment: 2D 15N-1H HSQC NMR titration of [U-15N] CCL21 with PSGL1 1–15 peptide; assay type: binding
T1 sequence (O00585 24-134): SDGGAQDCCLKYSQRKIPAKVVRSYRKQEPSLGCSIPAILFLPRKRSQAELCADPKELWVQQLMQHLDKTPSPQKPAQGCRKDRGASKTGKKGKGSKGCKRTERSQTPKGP

Kd (CCL21 [1]) | Substance | Kd (CCL21 [2])
300 µM | PSGL1 residues 1-15 peptide | 
 | QTAEYEYLDYDFLPE [PSGL1 peptide] | 300 ± 100 µM
